Values joined by “and” are separate entries in the source; they are usually repeats but may differ in a detail not shown here. Identical values can stand only once. Ends that are not written are not given here.

The conditions of data set [1]: cited from earlier work. On the procedure: Table 1 Amyloid nucleation and stabilization data. | column: Cr (μM) || We also addressed whether the Aβ appendages of these hybrid peptides provide any additional stability to the Q23 amyloid cores, in analogy to the stabilizing effect of HTT^NT on HTT exon1 amyloid. Stabilities were assessed by determining the concentration of monomer present when the amyloid assembly reaction reaches equilibrium (Supplementary Fig. 5)[41]. […] The results (Table 1) indicate some interesting trends.

Data set [2] in a line: Segmental HX-MS of the C-terminal pepsin fragment (35–42/35–40) of mature fibrils. The format is physicochemical. To be noted: mature amyloid fibrils, pepsin cleavage between Leu34 and Met35. From the text:
According to our hypothesis and designs of the peptide models, we expected the Aβ segments of the hybrid peptides to not be involved in amyloid core formation. […] Since the typical α-helix band in FTIR overlaps the characteristic polyQ amyloid band at ∼1,657 cm^−1 (ref. [23]), it is not expected that we might observe any α-helical structure in these fibrils that might be analogous to the HTT^NT α-helix in HTT exon1 fibrils. To address whether a portion of the Aβ segment might be involved in stable β-structure in the fibrils, we used hydrogen–deuterium exchange evaluated by mass spectrometry (HX-MS). […] The absence of a large amount of β-structure within the Aβ segment of the polyQ-Aβ hybrid fibrils is consistent with the total β-structure content of about 50% seen in the CD spectra of the final amyloid suspensions (Figs 2j, 3h and 4j) of peptides containing about 50% Gln residues. […]
All HX-MS data were analysed using an Agilent 1100 series single quadruple ESI mass spectrometer. Aggregates were washed and incubated in D2O and the exchange reactions analysed after an appropriate exchange time. Global HX was analysed by simultaneous dissolution and MS analysis of the exchange reaction using a T-tube front end to the MS[62]; data were not corrected for back-exchange. […]

A short description of data set [3]: Spontaneous aggregation kinetics by sedimentation-HPLC assay (disappearance of monomer). The data set is classed as physicochemical. To be noted: 22 μM start, after 35 days, PBS, 37 °C.
Experimental: Disaggregated peptide stock solutions were first checked for approximate concentration. All concentrations, for setting up the reaction and for assaying kinetics time points, were determined from integrated A214 HPLC (Agilent XDB-C18 4.6 × 50 mm column) peaks using standard curves individually constructed for each peptide from standard stock solutions calibrated via the A215 absorption[23][41]. […] Sodium azide was added to 0.05% (w/v) and pH adjusted to 7.4. After filtration through a 0.2 μm filter unit (Anotop 10) to get rid of aggregates, the solution was held at 4 °C while the t=0 concentration was determined (∼30 min). The reaction mixture was moved to 37 °C and kinetics monitored by the sedimentation and ThT assays on reaction aliquots and by CD.
Duplicate time points were removed periodically, centrifuged 30 min at 436,000g followed by HPLC analysis of monomer concentration from the carefully removed supernatant[41].
For sedimentation and ThT kinetics, as well as kinetics underlying the n* and Cr determinations and inhibition kinetics studies, each plotted data point is derived from analysis of 2–3 independent reaction aliquots. Each aggregation study was independently carried out twice, with similar results obtained.
The target of a further data set is T1, Aβ42 aggregates (Homo sapiens, UniProt P05067).
T1 construct: purchased Keck Center (Keck Biotechnology Center at Yale University); obtained pre-purified
T1 sequence (P05067 672-713): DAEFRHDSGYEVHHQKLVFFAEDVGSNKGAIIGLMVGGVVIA
As to the kind of experiment: Global hydrogen–deuterium exchange mass spectrometry (HX-MS) of aggregates. To be noted: for Global HX incorporation: not corrected for back-exchange. The format is physicochemical. On the procedure: All HX-MS data were analysed using an Agilent 1100 series single quadruple ESI mass spectrometer. Aggregates were washed and incubated in D2O and the exchange reactions analysed after an appropriate exchange time. Global HX was analysed by simultaneous dissolution and MS analysis of the exchange reaction using a T-tube front end to the MS[62]; data were not corrected for back-exchange. Segmental exchange was performed as described. Briefly, fibrils were recovered from the exchange reaction by centrifugation (20,800g, 30 min), and in a 4 °C room to 20 μl ice-cold 8 M Gdn.HCl plus 0.1% formic acid was added to the pellets and mixed for 10 s, then 100 μl pepsin agarose (Sigma-Aldrich) in 0.1% cold formic acid was added and mixed for 10 s. The sample was immediately centrifuged to remove the immobilized pepsin (20,800g, 30 s) and the supernatant subjected to 4 °C LC-MS analysis.

“Aβ40: full-length Aβ peptide ending at residue 40”: the Cr of fibrils in data set [1] was 1.06 ± 0.18 µM. In addition, the “Exchange of the C-terminal 35–42/35–40 fragment after exposure of fibrils to D2O” value in data set [2] is listed as “essentially fully exchanged”.

Consider KKKKKKKKKKGGIIGLMVGGVVIA [K10G2Aβ31–42], for which, in data set [3], the “Monomer remaining in the reaction mixture” value is around 13 µM.

As to “H-KKQQQQQQQQQQQQQQQQQQQQQQQKKAIIGLMVGGVVIA-OH”, the fraction of reaction mixture sedimentable at early time is 15%.

“Aβ42: full-length Aβ peptide ending at residue 42”: in data set [1], the Cr of fibrils was 0.11 ± 0.01 µM and 0.11 µM. Further, the “Exchange of the C-terminal 35–42/35–40 fragment after exposure of fibrils to D2O” value in data set [2] is listed as “resists exchange”. For the same substance, the results for the “Global HX incorporation” value in the data set with Aβ42 aggregates (Aβ42 aggregated alone) and with Aβ42 aggregates (Aβ42 aggregates grown in the presence of K10G2Aβ31–42) were 14.8±1.2 deuteriums and 25.6±1.2 deuteriums, respectively. The “Newly unprotected amide hydrogens” value with Aβ42 aggregates (Aβ42 aggregates grown with K10G2Aβ31–42 vs Aβ42 alone) is reported as around 11.

Values taken from publication PMC4996947, “Rapid α-oligomer formation mediated by the Aβ C terminus initiates an amyloid assembly pathway” (Nature Communications, 2016).
